US20240409648A1 (Boehringer Ingelheim, published 2024)
Residue numbers refer to the chain shown, from its start.

T1: human IL-36R on cells (HEK293 cells transfected with full-length human IL-36R); NCI/ADR-RES cells; human … (human, UniProt Q9HB29 20-575)
T1 sequence (looked up): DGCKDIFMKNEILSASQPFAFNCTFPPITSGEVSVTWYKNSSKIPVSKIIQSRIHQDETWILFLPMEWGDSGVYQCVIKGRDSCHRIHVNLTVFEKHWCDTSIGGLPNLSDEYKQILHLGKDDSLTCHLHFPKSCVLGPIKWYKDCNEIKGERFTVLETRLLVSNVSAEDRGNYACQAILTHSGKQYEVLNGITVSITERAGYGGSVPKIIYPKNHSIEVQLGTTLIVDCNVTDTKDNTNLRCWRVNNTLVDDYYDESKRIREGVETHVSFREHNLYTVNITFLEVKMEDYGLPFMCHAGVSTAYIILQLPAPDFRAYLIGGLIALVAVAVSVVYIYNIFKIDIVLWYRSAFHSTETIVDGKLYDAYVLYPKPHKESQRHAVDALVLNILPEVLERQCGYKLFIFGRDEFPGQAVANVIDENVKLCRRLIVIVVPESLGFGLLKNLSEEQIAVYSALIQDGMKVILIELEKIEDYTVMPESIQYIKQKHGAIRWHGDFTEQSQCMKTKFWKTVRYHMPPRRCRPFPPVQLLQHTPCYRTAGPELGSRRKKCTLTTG

B1: Mouse 81A1 (antibody 81A1) (antibody, V domains shown)
VH: QVQLKESGPGLVAPSQSLFITCTVSGFSLSSYEINWVRQVPGKGLEWLGVIWTGITTNYNSALISRLSISKDNSKSLVFLKMNSLQTDDTAIYYCARGTGTGFYYAMDYWGQGTSVTVSS
VL: DIQMTQTTSSLSASLGDRVTISCRASQDIYKYLNWYQQKPDGTLKLLIYYTSGLHSGVPSRFSGSGSGTDFSLTISNLEPEDIATYFCQQDSKFPWTFGGDTKLEIK
B2: Mouse 73C5 (antibody 73C5) (antibody, V domains shown)
VH: QVQLKESGPGLVAPSQSLSITCTVSGFSLTNYAVHWVRQFPGKGLEWLGVIWSDGSTDFNAPFKSRLSINKDNSKSQVFFKMNSLQIDDTAIYYCARKGGYSGSWFAYWGQGTLVTVSA
VL: DIVMTQSQKFLSTSVGVRVSVTCKASQDVGTNVLWYQQKIGQSPKPLIYSASYRHSGVPDRFTGSGSGTDFTLIISNVQSEDLAEYFCQQYSRYPLTFGPGTKLELK
B3: Mouse 73F6 (antibody 73F6) (antibody, V domains shown)
VH: B2 VH with F59Y, I87T
VL: B2 VL with P46A, S76T
B4: antibody 76E10 (antibody, V domains shown)
VH: QVQLKESGPVLVAPSQSLSITCTVSGFSLTNYGVHWVRQPPGKGLEWLGVIWPVGSTNYNSALMSRLSIHKDNSKSQVFLRMNSLQTDDTAIYYCAKMDWDDFFDYWGQGTTLTVSS
VL: DIVMTQSQKFMSATVGGRVNITCKASQNVGRAVAWYQQKPGQSPKLLTHSASNRYTGVPDRFTGSGSGTDFTLTITNMQSEDLADYFCQQYSSYPLTFGAGTKLDLK
B5: antibody 89A12 (antibody, V domains shown)
VH: EVQLQQSGAELVRPGASVRLSCTASGFNIKDDYIHWVRQRPKQGLEWLGRIDPANGNTKYDPRFQDKATITADTSSNTAYLHLSSLTSEDTAVYYCAKSFPDNYYSYDDAFAYWGQGTLVTVSA
VL: DIQMTQSPASQSASLGESVTFSCLASQTIGTWLGWYQQKPGKSPQLLIYRATSLADGVPSRFSGSGSGTNFSFKISSLQAEDLASYYCQQLYSGPYTFGGGTKLEIR
B6: antibody 67E7 (antibody, V domains shown)
VH: B5 VH with L11F, R19K, L20F, K42E, L48V, D61A, R63K, H82Q, D102N
VL: B5 VL with S22T, A51S, S53T, N70K, E81A, L83F, G94A
B7: Mouse 81B4 (antibody 81B4) (antibody, V domains shown)
VH: QVQLQQPGADFVRPGASMRLSCKASGYSFTSSWIHWVKQRPGQGLEWIGEINPGNVRTNYNENFRNKATLTVDKSSTTAYMQLRSLTSADSAVYYCTVVFYGEPYFPYWGQGTLVTVSA
VL: QIVLTQSPAIMSASLGERVTMTCTASSSVSSSYFHWYQQKPGSSPKLWIYRTSNLASGVPGRFSGSGSGTSYSLTISSMEAEDAATYYCHQFHRSPLTFGAGTKLELK
B8: Mouse 33D10 (antibody 33D10) (antibody, V domains shown)
VH: QVQLQQSGTELLKPGASVKLSCKASGNTVTSYWMHWVKQRPGQGLEWIGEILPSTGRTNYNENFKGKAMLTVDKSSSTAYMQLSSLASEDSAVYYCTIVYFGNPWFAYWGQGTLVTVSA
VL: B7 VL with F34L, Q39K, I49V, R51S, G61V, F92H, L97V, A101S, L107M
B9: Mouse 78C8 (antibody 78C8) (antibody, V domains shown)
VH: QVQLKESGPVLVAPSQSLSITCTVSGFSLTKFGVHWIRQTPGKGLEWLGVIWAGGPTNYNSALMSRLTISKDISQSQVFLRIDSLQTDDTAMYYCAKQIYYSTLVDYWGQGTSVTVSS
VL: DVLLTQTPLSLPVSLGDQASISCRSSQNIVHSNGNTYLQWYLQKPGQSPKLLIYKVSNRFSGVPDRFSGSGSGTDFTLKISRVEAEDLGVYYCFQGSHVPFTFGAGTKLELK
B10: antibody 172C8 (antibody, V domains shown)
VH: EVQLQQSGPELVKPGASVKLSCKASGYTFTDNYMNWVRQSHGKSLEWIGRVNPSNGDTKYNQNFKGKATLTVDKSLSTAYMQLNGLTSEDSAVYYCGRTKNFYSSYSYDDAMDYWGQGTSVTVSS
VL: DIQMTQSPASQSASLGESVTFTCLASQTIGTWLAWYQQRPGKSPQLLIYAATSLADGVPSRFSGSGSGTQFSFNIRSLQAEDFASYYCQQVYTTPLTFGGGTKLEIK

The binders below were run against cynomolgus IL-36R on BaF/3 cells (cynomolgus) (assay: cell-based or functional assay).

IC90 pNFκB, trun-IL-36a, BaF/3 cynomolgus IL-36R cells | IC90 pNFκB, trun-IL-36b, BaF/3 cynomolgus IL-36R cells [nM] | IC90 pNFκB, trun-IL-36g, BaF/3 cynomolgus IL-36R cells [nM] | Binder
0.6 nM | 0.9 | 1 | B1
0.2 nM | 1.6 | 1.5 | B2
0.5 nM | 0.7 | 0.8 | B3
> 4 µM | > 333 | > 333 | B4
> 4 µM | > 333 | > 333 | B5
> 4 µM | > 333 | > 333 | B6
2.4 nM | 3.5 | 5.1 | B7
> 4 µM | > 333 | > 333 | B8
1 nM | 2.1 | 1.5 | B9
> 4 µM | > 333 | > 333 | B10

Each binder was assayed against T1, human IL-36R on cells (HEK293 cells …) (assay: cell-based or functional assay).

IC90 pNFκB, trun-IL-36g, human primary keratinocytes (NHK) [nM] | Binder
0.5 | B7
